Measurements published in IntAct's records for PubMed 32101751.

B1: Ubiquitin carboxyl-terminal hydrolase 15 (Homo sapiens), Q9Y4E8 (parent)
chain: MAEGGAADLDTQRSDIATLLKTSLRKGDTWYLVDSRWFKQWKKYVGFDSWDKYQMGDQNVYPGPIDNSGLLKDGDAQSLKEHLIDELDYILLPTEGWNKLVSWYTLMEGQEPIARKVVEQGMFVKHCKVEVYLTELKLCENGNMNNVVTRRFSKADTIDTIEKEIRKIFSIPDEKETRLWNKYMSNTFEPLNKPDSTIQDAGLYQGQVLVIEQKNEDGTWPRGPSTPKSPGASNFSTLPKISPSSLSNNYNNMNNRNVKNSNYCLPSYTAYKNYDYSEPGRNNEQPGLCGLSNLGNTCFMNSAIQCLSNTPPLTEYFLNDKYQEELNFDNPLGMRGEIAKSYAELIKQMWSGKFSYVTPRAFKTQVGRFAPQFSGYQQQDCQELLAFLLDGLHEDLNRIRKKPYIQLKDADGRPDKVVAEEAWENHLKRNDSIIVDIFHGLFKSTLVCPECAKISVTFDPFCYLTLPLPMKKERTLEVYLVRMDPLTKPMQYKVVVPKIGNILDLCTALSALSGIPADKMIVTDIYNHRFHRIFAMDENLSSIMERDDIYVFEININRTEDTEHVIIPVCLREKFRHSSYTHHTGSSLFGQPFLMAVPRNNTEDKLYNLLLLRMCRYVKISTETEETEGSLHCCKDQNINGNGPNGIHEEGSPSEMETDEPDDESSQDQELPSENENSQSEDSVGGDNDSENGLCTEDTCKGQLTGHKKRLFTFQFNNLGNTDINYIKDDTRHIRFDDRQLRLDERSFLALDWDPDLKKRYFDENAAEDFEKHESVEYKPPKKPFVKLKDCIELFTTKEKLGAEDPWYCPNCKEHQQATKKLDLWSLPPVLVVHLKRFSYSRYMRDKLDTLVDFPINDLDMSEFLINPNAGPCRYNLIAVSNHYGGMGGGHYTAFAKNKDDGKWYYFDDSSVSTASEDQIVSKAAYVLFYQRQDTFSGTGFFPLDRETKGASAATGIPLESDEDSNDNDNDIENENCMHTN
partner: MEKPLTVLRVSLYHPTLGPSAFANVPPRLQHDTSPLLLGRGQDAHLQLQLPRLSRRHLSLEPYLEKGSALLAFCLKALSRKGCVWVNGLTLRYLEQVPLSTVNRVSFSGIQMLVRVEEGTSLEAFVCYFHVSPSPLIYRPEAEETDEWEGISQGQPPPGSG

Variants of: B1
Settings: with tifab_human TIFAB

effect of a mutation on the interaction	Variant
decreasing interaction strength	C298A
